Experimental data from publication doi:10.1101/099465.

Target: Laminin-111 (UniProt P19137)
Assay: SPR

Q: How did the Kd turn out when VEGFA165 (ligand) was run?
A: 47 nM
